Tests used:
[1] = test system: labeled peptide (XAKLDEESILKQK-FITC (SEQ ID NO: 238)); RA, KA, HA; experiment: Single point fluorescence polarization assay of UBR-streptavidin complex; type: binding
Protocol: Single point fluorescence polarization assays were then performed for selected candidates. These assays measured the interaction of labeled peptide (XAKLDEESILKQK-FITC (SEQ ID NO: 238)) with UBR-streptavidin complex in a format in which these molecules are free in solution. Measurements of polarization response (millipolarization, mP) and total intensity for RA, KA, and HA peptides were performed.

[2] = test system: dye-labeled RL peptide; experiment: Peptide-on-chip recognition assay for N-terminal arginine peptide; type: binding
Protocol: Peptide-on-chip recognition assays for N-terminal arginine peptide were performed with PS621 and PS528. Both PS528 and PS621 recognized N-terminal R, and binding to dye-labeled RL peptide at the single-molecule level was confirmed in these recognition assays, with average pulse width of approximately 60 ms.

[3] = test system: amino acid at a terminal position of a polypeptide; settings: Table 2; amino acid identity at a terminal position (phosphotyrosine also internal); inferred from literature and/or demonstrated by the inventors; cited from earlier work
[4] = test system: RA and KA peptides; experiment: Fluorescence polarization binding titration of UBR-box domain candidates (KD); settings: RA peptide
Protocol: The binding affinity of selected UBR-box domain candidates was then evaluated by measuring KD (dissociation constant) values for N-terminal R and K peptides. Assays were performed for RA and KA peptides at increasing concentration of UBR protein (FIG. 32G, top plots). KD values were determined from the binding titration curves.

[5] = molecular target: N-terminal arginine peptide (alanine at the penultimate position); experiment: Fluorescence polarization binding affinity of tandem recognizers, RA peptide
Protocol: Three different constructs were designed and expressed for each multivalent UBR-box binder: PS690, PS691, and PS692 (Bis-PS621 binders having Linker 1, Linker 2, and Linker 3, respectively); and PS693, PS694, and PS695 (Bis-PS528 binders having Linker 1, Linker 2, and Linker 3, respectively). Fluorescence polarization studies were performed to evaluate the binding affinity of each of the multivalent UBR-box binders, and the corresponding monomeric binders, for a peptide having an N-terminal arginine residue with an alanine residue at the penultimate position. The KD values obtained from these studies are reported below in Table 11.

[6] = test system: immobilized peptides containing N-terminal R, K or H; experiment: Biolayer interferometry of UBR-box domain homologs; type: binding
Protocol: The amino acid binding properties of UBR-box domain homologs were evaluated by biolayer interferometry. Peptides containing an N-terminal arginine (R), followed by different amino acids in the penultimate position, were immobilized on a biolayer interferometry sensor surface, allowed to bind to UBR-box protein, and incubated in buffer to allow the UBR-box molecules to dissociate. […] FIG. 32C is a heatmap showing results measured for 24 UBR-box homologs against 14 polypeptides containing N-terminal R followed by different amino acids in the penultimate position.
UBR proteins bind to the basic N-terminal residues R, K, and H as part of the conserved N-end rule pathway. To identify high-affinity UBR proteins with properties favorable for use in sequencing, a diverse panel of uncharacterized UBR-box domain homologs from 44 species (PS501-PS544) was designed. UBR-box domain homologs were expressed, purified, and evaluated for binding to N-terminal amino acids by biolayer interferometry. Measurements were carried out at 30° C. for each protein for R, K and H binding. The amino-acid binding profile of each new homolog was first evaluated by biolayer interferometry using a single-point screening assay. All peptides in this screen contained a penultimate alanine (A) and consisted of the sequence XAKLDEESILKQK (SEQ ID NO: 238), where X is R, K, or H.
To evaluate the effect of penultimate amino acids on arginine binding, UBR box-domain homologs were evaluated for binding to 14 different peptides with N-terminal RX (peptide sequence: RXGGGDDDFFK (SEQ ID NO: 241)). The selected RX dipeptides are the 14 most frequently found in the human proteome.

- Kd [5]: 403 nM
B1: PS528: UBR-box domain homolog, SEQ ID NO: 156 (protein, listed as Kluyveromyces lactis)
chain: MHSKFNHAGRICGAKFRVGEPIYRCKECSFDDTCVLCVNCFNPKDHVGHHVYTSICTEFNNGICDCGDKEAWNHELNCKGAED
- polarization response with RA peptide [1]: bind to RA peptides with strong responses
- average pulse width [2]: approximately 60 ms
- Binding Pref. [3]: K, R, H
- Kd [4]: 460 nM
- binding range for RX dipeptides ([6]; 14 peptides RXGGGDDDFFK (SEQ ID NO: 241)): extensive binding range for RX dipeptides
- binding affinity to N-terminal R with different penultimate amino acids ([6]; 14 polypeptides containing N-terminal R): high binding affinity to R in the presence of a wide range of penultimate amino acids
- binding to RA/KA/HA peptides (single-point screening) ([6]; 30° C., XAKLDEESILKQK): favorable binding trajectories to RA and KA peptides with notably high response for RA peptide
- dissociation trajectory and HA peptide binding ([6]; 30° C., XAKLDEESILKQK): slower dissociation trajectory and displayed binding to HA peptide
